Data as given in patent USRE42211, “Relating to binding proteins for recognition of DNA” (Gendaq, Limited).

Target: anti-BCR-ABL three-finger peptide 1A-2A-3B (synthetic)
Test: phage ELISA after capture on streptavidin beads; +/-0.4e-7 M; Zn, PBS, 20 C
Conditions: source form inferred; label: 5'-biotin

anti-BCR-ABL three-finger peptide 1A-2A-3B (synthetic), sequence (chain, as listed by the source): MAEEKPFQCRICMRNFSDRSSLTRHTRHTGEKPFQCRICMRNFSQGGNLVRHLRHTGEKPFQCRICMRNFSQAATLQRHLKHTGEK

B1: p190 BCR-ABL cDNA fusion site oligo (dsDNA)
DNA 1: GAGACGCAGAAGCCCTTC
DNA 2: GAAGGGCTTCTGCGTCTC
Kd: 620 nM
